Article PMC2927781

Assays:
Test in all cases: ITC; H3K4me2 peptide injected (19 x 2 ul) into the protein; 25 °C; 25 mM Tris pH 8.0, 100 mM NaCl; iTC 200; one-site model
[1] = target: PHD_(Pygo1)–HD1B9L complex (human) (UniProt Q9Y3Y4)
[2] = target: free PHD finger of human Pygo1 (human)
[3] = target: PHD_(Pygo2)–HD1_(BCL9) complex (human) (UniProt Q9BRQ0)
[4] = target: PHD_(Pygo1)–HD1_(BCL9) complex (6×His-tagged, PHD linked to HD1) (human) (UniProt Q9Y3Y4)
[5] = target: PHD_(Pygo2)–HD1B9L complex (6×His-tagged, PHD linked to HD1; ITC construct) (human) (UniProt Q9BRQ0)
[6] = target: free PHD finger of human Pygo2 (human)
[7] = target: PHD_(Pygo2)–HD1B9L complex with Pygo2 W377F (human) (UniProt Q9BRQ0)
[8] = target: PHD_(Pygo2)–HD1B9L complex with Pygo2 I344A (human) (UniProt Q9BRQ0)

- stoichiometry N [1]: 1
- Kd [2]: 5.93 µM
- stoichiometry N [2]: 1
- stoichiometry N [3]: 1
- fold increase in affinity over free PHD (Pygo1) [4]: 2 fold
- stoichiometry N [4]: 1
- Kd [5]: 1830 nM
- stoichiometry N [5]: 1
- Kd [6]: 4.95 µM
- stoichiometry N [6]: 1
- Kd [7]: 11.5 µM
- Kd [8]: 19.5 µM
Substance: 15-mer H3K4me2 histone tail peptide (histone H3 tail dimethylated at lysine 4)
